Here are results for one molecule from US5952463.

Assay [1] has as its target Subtilisin.
Assay [2] has as its target Thermolysin.
For assay [3], the target named is Chymotrypsin.
Assay [4] has as its target Trypsin.
Assay [5] has as its target purified secretion-type Kex2 proteinase (sKEX2 product, Saccharomyces yeast) (Saccharomyces yeast) (UniProt P13134). On the set-up: unit not given beside the values.
The target in assay [6] is Subtilisin. The source holds these as a separate data set.
In assay [7] the target is Pepsin.
In assay [8] the target is Thermolysin. The source holds these as a separate data set.
The target of assay [9] is Chymotrypsin. This is another data set of the same source.
In assay [10] the target is Trypsin. This is another data set of the same source.

B1: Kexstatin (proteinase inhibitor purified from the culture fluid of Streptomyces platensis Q268) (protein)
chain: GLYAPTELVLTVGQGESRATATVQRAVTLSCMPGARGSHPNPLGACTQLRAVAGDFNAITAATSDRLCTKEWNPLVVTADGVWQGKRVSYSYTFANRCEMNIDSDTVFNF
As to B1, the Inhibition Ratio (%), casein Folin method in assay [1] is 87%; in [2] it was -5.5%; in [3], -19%; in assay [4], 2.4%. The molecule also had an IC50 (amount of Kexstatin which inhibits the activity of 1 µg of Kex2 proteinase by 50%) (µg (per 1 µg of Kex2 proteinase)) in [5] of 1.4. Further, the Inhibition Ratio (%), synthetic fluorescent substrate Suc-Ala-Ala-Pro-Phe-MCA, enzyme at 1/10 molar ratio to 0.5 µg of Kexstatin in assay [6] was determined as 99.5%; in assay [9] it was 0%. Also, the figures for the Inhibition Ratio (%), casein Folin method, enzyme at 1/10 molar ratio to 0.5 µg of Kexstatin in [7] and in assay [8] were 0% and 8%, respectively. Besides, in assay [10], the Inhibition Ratio (%), synthetic fluorescent substrate Bz-Arg-MCA, enzyme at 1/10 molar ratio to 0.5 µg of Kexstatin came out at 49.2%.
